# From patent US6509447B1, “G protein chimeras and methods of screening compounds” (Glaxo Welcome Inc., priority 1997, dated 2003)
# T1: melatonin ML1B receptor (Homo sapiens, UniProt P49286)
# T1 construct: expressed in transfected cells; host or cells: Saccharomyces cerevisiae strains MMY9 and MMY11, plasmid pDT-PGK-ML1B
# T1 sequence (P49286 1-362): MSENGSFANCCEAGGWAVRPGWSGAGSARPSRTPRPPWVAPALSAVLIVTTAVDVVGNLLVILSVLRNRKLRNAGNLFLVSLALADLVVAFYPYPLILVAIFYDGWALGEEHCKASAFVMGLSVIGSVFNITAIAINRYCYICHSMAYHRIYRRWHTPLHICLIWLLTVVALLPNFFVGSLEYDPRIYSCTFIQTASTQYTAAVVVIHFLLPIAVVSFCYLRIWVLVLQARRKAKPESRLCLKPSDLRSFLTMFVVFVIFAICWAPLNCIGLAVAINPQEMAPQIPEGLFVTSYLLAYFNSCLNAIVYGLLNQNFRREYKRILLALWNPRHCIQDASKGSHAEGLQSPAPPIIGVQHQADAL
# Columns and labels:
# [1] = molecular target: T2, somatostatin SST2 receptor (Homo sapiens, UniProt P30874); experiment: Reverse halo assay for FUS1-HIS3 expression, MMY9 cells, SST2; format: cell-based; conditions: MMY9 cells with pRS314-GPA1 and SST2 receptor, 3 nmol somatostatin-14
# T2 construct: expressed in transfected cells; host or cells: Saccharomyces cerevisiae strains MMY9 and MMY11, plasmid pFL61-SST2, PGK1 promoter
# T2 sequence (P30874 whole entry): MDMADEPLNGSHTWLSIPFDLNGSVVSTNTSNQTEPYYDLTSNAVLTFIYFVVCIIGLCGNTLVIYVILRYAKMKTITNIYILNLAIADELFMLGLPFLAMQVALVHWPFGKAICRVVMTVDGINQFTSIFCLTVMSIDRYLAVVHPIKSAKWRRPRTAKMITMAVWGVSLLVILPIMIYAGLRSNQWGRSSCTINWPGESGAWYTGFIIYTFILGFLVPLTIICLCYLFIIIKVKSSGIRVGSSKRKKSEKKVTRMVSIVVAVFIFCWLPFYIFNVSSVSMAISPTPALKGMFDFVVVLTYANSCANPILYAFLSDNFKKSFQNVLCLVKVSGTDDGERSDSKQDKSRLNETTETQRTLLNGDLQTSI
# Method: (§1) Assay for FUS1-HIS3 Expression. Reverse halo assays were carried out by growing MMY9 cells to early stationary phase (OD600≈4) in liquid SC-glucose (2%) medium lacking tryptophan and uracil. A uniform layer of cells (5×10^7) was plated to 22.5 cm by 22.5 cm bioassay dishes (Nunc) in 100 ml SC-glucose agar (1%) equilibrated to 50° C. This medium lacked tryptophan, uracil and histidine, and was supplemented with 10 mM 3-aminotriazole, and buffered to pH 7.0 with 0.1M sodium phosphate. Antibiotic discs were placed on the solidified agar, and a volume of agonist solution (1-5 μl) was applied to each disc. Plates were incubated at 30° C. for 3 days.
# (§2) The four receptors were: the melatonin ML1B receptor, the serotonin 5HT1A receptor, the somatostatin SST2 receptor and the purinergic nucleotide receptor, P2Y2. […] Activation of the pheromone response pathway was monitored with two integrated reporter genes: […] allowing a growth readout in medium lacking histidine, and FUS1-lacZ allowing a β-galactosidase readout. […] Agonist-dependent activation of FUS1-HIS3 was determined by reverse halo assay in which agonists were applied to the filter discs in the arrangement shown in panel A, in quantities as follows: 3 nmol of somatostatin-14 (S-14); 40 nmol of melatonin (Mel); 3 nmol of α-factor; 100 nmol of UTP; 40 nmol of serotonin (5-HT). […]
# melatonin ML1B receptor = molecular target: T1, melatonin ML1B receptor; experiment: Reverse halo assay for FUS1-HIS3 expression, MMY9 cells, ML1B; format: cell-based; conditions: MMY9 cells with pRS314-GPA1 and ML1B receptor, 40 nmol melatonin
# Method: as §1, §2
molecule,measurement,setting,value
"Gpa1p: endogenous yeast Gα subunit, product of the GPA1 gene (protein, UniProt P08539 2-472, looked up) Guanine nucleotide-binding …: GCTVSTQTIGDESDPFLQNKRANDVIEQSLQLEKQRDKNEIKLLLLGAGESGKSTVLKQLKLLHQGGFSHQERLQYAQVIWADAIQSMKILIIQARKLGIQLDCDDPINNKDLFACKRILLKAKALDYINASVAGGSDFLNDYVLKYSERYETRRRVQSTGRAKAAFDEDGNISNVKSDTDRDAETVTQNEDADRNNSSRINLQDICKDLNQEGDDQMFVRKTSREIQGQNRRNLIHEDIAKAIKQLWNNDKGIKQCFARSNEFQLEGSAAYYFDNIEKFASPNYVCTDEDILKGRIKTTGITETEFNIGSSKFKVLDAGGQRSERKKWIHCFEGITAVLFVLAMSEYDQMLFEDERVNRMHESIMLFDTLLNSKWFKDTPFILFLNKIDLFEEKVKSMPIRKYFPDYQGRVGDAEAGLKYFEKIFLSLNKTNKPIYVKRTCATDTQTMKFVLSAVTDLIIQQNLKKIGII",agonist-dependent activation of FUS1-HIS3 (halo of cell growth),[1],responded to somatostatin
same,agonist-dependent activation of FUS1-HIS3 (halo of cell growth),melatonin ML1B receptor,activated FUS1-HIS3 in response to melatonin
